US20210347914A1 (BANYAN BIOMARKERS, published 2021)
Positions count from the first letter of the chain named. Each block holds one binder with its values, some of them ahead of it.

Target: T1, Polyhistidine-tagged recombinant human GFAP expressed from E. coli (human, UniProt P14136 1-432)
T1 construct: also called His-tagged GFAP; not shown: polyhistidine tag
Test: BLI (Octet QKe); His-tagged GFAP on anti-Penta-HIS sensor, antibody in solution
Protocol: The rates of association (kₒₙ) and dissociation (koff) of the anti-GFAP antibodies were determined by bio-layer interferometry using an Octet QK^e instrument according to the manufacturer's instructions (ForteBio). See Tobias et al., Biomolecular Binding Kinetic Assays in the Octet Platform, Application Note 14, ForteBio, Div. of Pall Life Sciences, 2013. Polyhistidine-tagged recombinant human GFAP expressed from E. coli was used as the antigen. The antigen was bound at a concentration of 8.3 μg/ml to an anti-Penta-HIS(HIS1K) capture biosensor containing an anti-histidine antibody (ForteBio) for use with the Octet QK^e instrument.

T1 sequence (P14136 whole entry): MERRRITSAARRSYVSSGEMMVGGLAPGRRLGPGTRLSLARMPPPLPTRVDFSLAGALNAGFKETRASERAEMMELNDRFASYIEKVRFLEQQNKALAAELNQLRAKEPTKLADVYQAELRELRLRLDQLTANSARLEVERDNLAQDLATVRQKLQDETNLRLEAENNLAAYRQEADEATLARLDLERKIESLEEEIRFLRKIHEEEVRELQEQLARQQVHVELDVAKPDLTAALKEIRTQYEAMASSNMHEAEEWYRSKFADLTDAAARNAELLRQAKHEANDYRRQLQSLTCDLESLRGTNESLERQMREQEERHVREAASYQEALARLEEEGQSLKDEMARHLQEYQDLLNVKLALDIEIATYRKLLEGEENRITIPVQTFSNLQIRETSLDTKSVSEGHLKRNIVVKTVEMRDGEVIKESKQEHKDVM

Kd: 0.0737 nM
koff: 2.5e-05 s⁻¹
kon: 344000 M⁻¹ s⁻¹
B1: GFAP-18 (antibody, V domains shown)
VH: EVILVESGGGLVKPGGSLKVSCAVSGFTFSNFAMSWVRQTPEKRLEWVASISSGGTTYYPDNVKGRFTISRDNARNIMYLQMSSLRSEDTAMYFCARGGLHYFGYWGQGTTLTVSS
VL: DIVMTQSHKFMSTSVGDRVSITCKASQDVNTAVAWYQQKPGQSLKLLIYSASYRYIGVPDRFTGSGSGTDFTFTINSVQAEDLAVYYCHQYYSTPLTFGTGTKLELK
notes: also called mouse anti-GFAP antibody GFAP-18

Kd: 0.208 nM
koff: 1.8e-05 s⁻¹
kon: 86600 M⁻¹ s⁻¹
B2: GFAP-17 (antibody, V domains shown)
VH: EVKLEESGGGLVQPGGSMKLSCVASGFTFSYYWMSWVRQSPEKGLEWIAEIRLKSNIYATHYAASVKGRFTISRDDSKSSVYLQMNNLRAEDTGIYFCTRFGTGAMDYWGQGTSVTVSS
VL: DIVMSQSPSSLAVSVGEKVTMSCKSSQSLLYRTNQKNYLAWYQQKPGQSPKLLIYWASSRESGVPDRFSGSGSGTDFTLTISSVKAEDLAVYYCQQYYSYPWTFGGGTKLEIK
notes: also called mouse anti-GFAP antibody GFAP-17

Kd: 0.6 nM
koff: 0.000194 s⁻¹
kon: 324000 M⁻¹ s⁻¹
B3: GFAP-13 (antibody, V domains shown)
VH: EVLLQQSGPELVKPGASVKMSCKTSGYTFANYIMHWVKQTPGQGLEWIGFINPYNDYTEYNEKFKGKATLTSDKSSSTAYMEFSGLTSEDSAVYYCSTATFAYWGQGTLVTVSA
VL: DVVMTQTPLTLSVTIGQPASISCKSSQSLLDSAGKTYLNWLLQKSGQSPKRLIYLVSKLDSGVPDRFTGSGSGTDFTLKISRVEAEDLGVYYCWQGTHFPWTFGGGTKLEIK
notes: also called mouse anti-GFAP antibody GFAP-13

Kd: 0.202 nM
koff: 0.000231 s⁻¹
kon: 1.15e+06 M⁻¹ s⁻¹
B4: GFAP-15 (antibody, V domains shown)
VH: DVQLVESGGGLLEPGGSRKLSCAASGFTFSSFGMHWVRQAPEKGLEWVAYISSGSRTIFYADTVKGRFTISRDNPKNTLFLQMTSLRSGDTAMYYCVRGGYGSSFDYWGQGTTLTVSS
VL: DVVMTQTPLSLPVSLGDQASISCRSSQSLVYSNGNIYLHWYLQKPGQSPKLLIYKVSNRFSGVPDRFSGSGSGTDFTLKISRVEAEDLGVYFCSQSTHVPYTFGGGTKLEIK
notes: also called mouse anti-GFAP antibody GFAP-15

Kd: 0.28 nM
koff: 8.4e-05 s⁻¹
kon: 299000 M⁻¹ s⁻¹
B8: GFAP-14 (antibody, V domains shown)
VH: DVQLVESGGGSVQPGGSRKLSCAASGFTFSSFGMHWVRQAPEKGLEWVAYISSDSNTVYYADTVKGRFTISRDNPKNTLFLQMTSLRSEDTAMYYCARYAMDYWGQGTSVTVSS
VL: QIVLTQSPALMSASPGEKVTMTCSASSSVSYMYWYQQKPRSSPKPWIYLTSNLASGVPARFSGSGSGTSYSLTISSMEAEDAATYYCQQWSSNPPTFGAGTKLELK
notes: also called mouse anti-GFAP antibody GFAP-14

Kd: 0.423 nM
koff: 6.4e-05 s⁻¹
kon: 151000 M⁻¹ s⁻¹
B10: GFAP-19 (antibody, V domains shown)
VH: EVQLVESGGGLVKPGGSPKLSCAASGFAFSSYDMSWVRQTPEKRLEWVAYISSGGGSTYYPDTMKGRFTISRDNAKNTLYLQMSSLKSEDTAMYYCARHYGTYLYYLDYWGQGTTLTVSS
VL: DIVLTQSPATLSVTPGDRVSLSCRASQNISDFLHWYQQKSHESPRLLIKYASQSISGIPSRFSGSGSGSDFTLSINSVEPEDVGVYYCQNGHSFPPTFGGGTKLEIK
notes: also called mouse anti-GFAP antibody GFAP-19

Kd: 0.273 nM
koff: 4.7e-05 s⁻¹
kon: 173000 M⁻¹ s⁻¹
B15: GFAP-16 (antibody, V domains shown)
VH: QVQLQQSDAELVKPGASVKISCKASGYTFTDHTIHWVKQRPEQGLEWIGYIYPGDGSTKYNEKFKGKATLTADKSSSTVYMQLNSLTSEDSAVYFCARPAPYWNFDVWGAGTTVTVSS
VL: DIQMTQSPSSLSASLGGKVTITCKASQDIKKNIAWYQHKPGKGPRLLIWYTSTLQPGIPSRFSGSGSGRDYSFSISNLEPEDIATYYCLQYDHLRTFGGGTKLEIK
notes: also called mouse anti-GFAP antibody GFAP-16

The remaining lines, values behind:

B5: GFAP-2 (antibody, V domains shown)
VH: DVQLVESGGGLVQPGGSRKLSCAASGFTFSSFGMHWVRQAPEKGLEWVAYISSGSSIIYYADTVKGRFTISRDNPKNTLFLQMTSLRSEDTAMYYCTGSDWGSFAYWGQGTLVTVSA
VL: B4 VL with I36T, S61F
notes: also called mouse anti-GFAP antibody GFAP-2
Kd: 0.0557 nM
koff: 3.3e-05 s⁻¹
kon: 593000 M⁻¹ s⁻¹

B6: GFAP-5 (antibody, V domains shown)
VH: EVQLVESGGGLVKPGGSLKLSCAASGFTFSAYGMHWVRQAPEKGLEWIAYISSGSSTIYYADTVKGRFTISRDNAKNTLFLQMTSLRSEDTAMYYCASSYALDYWGQGTSVTVSS
VL: B4 VL with I36T, G105S
notes: also called mouse anti-GFAP antibody GFAP-5
Kd: 5.36 nM
koff: 0.000107 s⁻¹
kon: 20000 M⁻¹ s⁻¹

B7: GFAP-10 (antibody, V domains shown)
VH: EVKLVESGGGLVKPGGSLKLSCAASGFTFSYYAMSWVRQTPEKRLEWVASISSGGTTYHPDSVKGRFTISRDNARNILYLQMSSLRSEDTAMYYCARGGHWYFDVWGAGTTVTVSS
VL: QIVLTQSPAIMSASPGEKVTMTCSASSSVSYMHWYQQKSGTSPKRWIYDTSKLASGVPARFSGSGSGTSYSLTISSMEAEDAATYYCQQWSTNPLTFGAGTKLDLK
notes: also called mouse anti-GFAP antibody GFAP-10
Kd: < 0.001 nM
koff: 1e-07 s⁻¹
kon: 53300 M⁻¹ s⁻¹

B9: GFAP-11 (antibody, V domains shown)
VH: QIQLVQSGPELKKPGETVKISCKASGYTFTNYGMNWVKQAPGEGLKWMGWINTNIGEPTYAEEFKGRFAFSLEASASTAYLQINNLKNEDTATYFCARWKNYGYFDYWGQGTTLTVSS
VL: QIVLTQSPAIMSASLGERVTMTCTASSSVSSSYLHWYQQKPGSSPKLWIYSTSNLASGVPARFSGSGSGTSYSLTISSLEAEDAATYYCHQYHRSPYTFGGGTKLEIK
notes: also called mouse anti-GFAP antibody GFAP-11
Kd: 0.396 nM
koff: 0.000125 s⁻¹
kon: 315000 M⁻¹ s⁻¹

B11: GFAP-6 (antibody, V domains shown)
VH: EVQLQQSGAEFVKPGASVKLSCTASGFNIKDTDMHWVRQRPEQGLESIGLIDPAIGNTKYDPKFQGKATITADTSSNAAYLQLSSLTSEDTAVYYCARSDRYLAWFAYWGQGTLVTVSA
VL: B10 VL with L4M, N28S, E42G, A51S, S93T, P96Y
notes: also called mouse anti-GFAP antibody GFAP-6; HRP-labeled anti-GFAP antibody
Kd: 1.07 nM
koff: 0.000124 s⁻¹
kon: 116000 M⁻¹ s⁻¹

B12: GFAP-9 (antibody, V domains shown)
VH: DVQLQESGPGLVKPSQSLSLTCSVTGYSITSGFYWSWIRQFPGNKLEWMGYISYDGSNNYNPSLKNRISITRDTSKNQFFLKLNSVTTEDTATYYCARAYGYDGAWFAYWGQGTLVTVSA
VL: DIVMTQSQKFMSTSVGDRVSITCKASQNVRTAVAWYQQKPGQSPKALIYLASNRHTGVPDRFTGSGSGTDFTLTISNVQSEDLADYFCLQHWNNPYTFGGGTKLEIK
notes: also called mouse anti-GFAP antibody GFAP-9
Kd: 18 nM
koff: 0.000701 s⁻¹
kon: 39000 M⁻¹ s⁻¹

B13: GFAP-1 (antibody, V domains shown)
VH: EVHLQQSGTVLARPGASVKMSCKASGYSFTSYWMHWVKQRPGQGLEWIGAFYPENSDTNYNQKFKGKARLTAVTSANTAYMELNSLTNEDSAVYYCTRPLLFSAYFDFWGQGTTLTVSS
VL: DVLMTQTPLSLPVSLGDQASISCRSSQSIVHSYGNTYLEWYLQKPGLSPKLLIYKVSNRFSGVPDRFSGSGSGTDFTLTISRVEAEDLGVYYCFQGSHVPYTFGGGTKLEIK
notes: also called mouse anti-GFAP antibody GFAP-1
Kd: 0.0107 nM
koff: 1.7e-06 s⁻¹
kon: 162000 M⁻¹ s⁻¹

B14: GFAP-12 (antibody, V domains shown)
VH: QVQLQQSGAELMKPGASVKISCKATGYTFSNYWIEWVKQRPGHGLEWIGEILPGSGSTNYNEKFKGKATFTADTSSNTAYMQLSSLTSEDSAVYYCAIYYGNYAGAMDYWGQGTSVTVSS
VL: DIQMTQSPASLSASVGETVTITCRASENIYSYLAWYQQKQGKSPQLLVYNAKTLAEGVPSRFSGSGSGTQFSLKINSLQPEDFGSYYCQLHYGTPYTFGSGTKLEIK
notes: also called mouse anti-GFAP antibody GFAP-12
Kd: 13.3 nM
koff: 0.00024 s⁻¹
kon: 18000 M⁻¹ s⁻¹

B16: GFAP-7 (antibody, V domains shown)
VH: EVQLLQSGTVLARPGASVKMSCKASGYSFTSYWMHWIKQRPGQGLEWIGAIHPGNRDTSYNQKFKDKAKLTAVTSASTAYMELSSLTNEDSAVYFCTREDYWGQGTTLTVSS
VL: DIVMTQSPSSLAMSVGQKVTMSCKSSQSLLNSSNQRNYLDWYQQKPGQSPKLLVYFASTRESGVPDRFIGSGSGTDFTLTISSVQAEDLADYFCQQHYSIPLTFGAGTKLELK
notes: Same variable domains as GFAP-8; also called mouse anti-GFAP antibody GFAP-7
Kd: 0.856 nM
koff: 5.8e-05 s⁻¹
kon: 67800 M⁻¹ s⁻¹

B17: GFAP-8 (antibody, V domains shown)
VH: B16 VH
VL: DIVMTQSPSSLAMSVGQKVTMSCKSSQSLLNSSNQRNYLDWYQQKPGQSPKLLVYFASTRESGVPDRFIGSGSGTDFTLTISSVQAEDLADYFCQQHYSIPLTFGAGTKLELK
notes: Same variable domains as GFAP-7; also called mouse anti-GFAP antibody GFAP-8
Kd: 1.11 nM
koff: 0.000133 s⁻¹
kon: 120000 M⁻¹ s⁻¹

B18: GFAP-4 (antibody, V domains shown)
VH: B16 VH
VL: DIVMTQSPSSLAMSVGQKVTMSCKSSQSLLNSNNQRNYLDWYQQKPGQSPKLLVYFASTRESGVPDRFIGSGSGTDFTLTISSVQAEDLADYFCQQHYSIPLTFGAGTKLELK
notes: also called mouse anti-GFAP antibody GFAP-4
Kd: 2.93 nM
koff: 0.000158 s⁻¹
kon: 53700 M⁻¹ s⁻¹

B19: GFAP-3 (antibody, V domains shown)
VH: EVKLEESGGGLVQPGGSMKLSCVASGFTFTNYWMSWVRQSPEKGLEWVAQIRLKSDNYATHYAESVKGRFTISRDDSKSSVYLQMNNLRAEDTGIYYCTGGEFLSWFAYWGQGTLVTVSA
VL: DIVMSQSPSSLAVSAGEKVTMSCKSSQSLFNSRTRKNYLAWYQQKPGQSPKLLIYWASTRESGVPDRFTGSGSGTDFTLTISSVQAEDLAVYYCKQSYYLYTFGSGTKLEIK
notes: also called mouse anti-GFAP antibody GFAP-3
Kd: 12 nM
koff: 0.000698 s⁻¹
kon: 58000 M⁻¹ s⁻¹
